Biological target: PhiKo endolysin (Thermus thermophilus HB27 bacteriophage phiKo)
Assay: AUC; sedimentation velocity, 50,000 rpm, 4°C, 20 mM MES, 150 mM NaCl, pH 6.0, in the absence or presence of 20 mM DPC detergent; PhiKo endolysin 1.2 mg/mL; continuous c(s) distribution (SEDFIT); monomer to dimer

percent of the signal in the dimer peak (with 20 mM DPC): 15%
percent of the signal in the dimer peak (without DPC): 2.3%
stoichiometry N: 2
Substance: PhiKo endolysin (enzyme)

— publication PMC10836841
